Results as given in patent US8071348B2, “Protein tyrosine phosphatase substrate-trapping double mutant and uses thereof” (Albert Einstein College of Medicine of Yeshiva University, priority 2002, dated 2011).
[ ]: non-standard residue; d: D form. F2Pmp = N[C@@H](Cc1ccc(C(F)(F)P(=O)(O)O)cc1)C(=O)O

T1: PTP1B/D181A/C215E, catalytic domain (residues 1 to 321) (human, UniProt P18031 1-321)
T1 construct: range 1-321; Used in vitro (ITC)
T1 sequence (looked up): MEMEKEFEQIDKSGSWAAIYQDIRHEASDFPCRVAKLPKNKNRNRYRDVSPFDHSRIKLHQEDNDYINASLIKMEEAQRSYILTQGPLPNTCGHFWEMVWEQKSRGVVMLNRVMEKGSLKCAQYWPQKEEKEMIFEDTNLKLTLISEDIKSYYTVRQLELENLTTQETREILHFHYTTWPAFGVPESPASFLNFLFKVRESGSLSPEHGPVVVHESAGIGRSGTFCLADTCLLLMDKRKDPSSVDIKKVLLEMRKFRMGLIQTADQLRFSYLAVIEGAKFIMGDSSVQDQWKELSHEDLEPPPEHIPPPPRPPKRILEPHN

T2: PTP1B/D181A/Q262A, catalytic domain (residues 1 to 321) (human, UniProt P18031 1-321)
T2 construct: range 1-321; Used in vitro (ITC, kinetics); also called PTP1B substrate-trapping double mutant
T2 sequence (looked up): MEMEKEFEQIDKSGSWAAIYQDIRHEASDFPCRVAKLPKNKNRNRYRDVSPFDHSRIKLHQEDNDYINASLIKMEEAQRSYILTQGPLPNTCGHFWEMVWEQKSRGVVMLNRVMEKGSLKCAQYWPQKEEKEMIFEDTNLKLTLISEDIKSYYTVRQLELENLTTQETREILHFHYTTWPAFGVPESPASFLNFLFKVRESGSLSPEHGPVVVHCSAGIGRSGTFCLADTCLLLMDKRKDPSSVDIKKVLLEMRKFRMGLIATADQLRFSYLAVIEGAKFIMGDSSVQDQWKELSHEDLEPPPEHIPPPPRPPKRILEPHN

T3: Ac-Asp-Ala-Asp-Glu-F2Pmp-Leu-NH2 (Homo sapiens, UniProt P18031, C215S/Q262A)
T3 construct: The catalytic domain of PTP1B (residues 1 to 321) was used for in vitro study; made in house; host or cells: E. coli (pT7-7 plasmids)
T3 sequence (P18031 1-321 C215S/Q262A): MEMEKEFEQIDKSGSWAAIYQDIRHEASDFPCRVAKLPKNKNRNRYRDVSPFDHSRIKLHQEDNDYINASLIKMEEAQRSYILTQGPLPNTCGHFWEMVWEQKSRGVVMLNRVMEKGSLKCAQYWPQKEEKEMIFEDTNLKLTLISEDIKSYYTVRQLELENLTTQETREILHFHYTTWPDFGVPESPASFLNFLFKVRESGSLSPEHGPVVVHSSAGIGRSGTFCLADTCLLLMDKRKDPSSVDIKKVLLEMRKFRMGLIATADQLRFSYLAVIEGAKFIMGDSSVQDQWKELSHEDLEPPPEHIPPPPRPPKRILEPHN

B1: Ac-Asp-Ala-Asp-Glu-F2Pmp-Leu-NH2 (peptide)
peptide: Ac-DADE[F2Pmp]L-NH2
notes: Synthetic hexapeptide printed in three-letter code; also called F2Pmp-containing peptide; non-hydrolyzable substrate analog
B2: C215S/Q262A: PTP1B double mutant, Cys215 to Ser and Gln262 to Ala (protein, UniProt P18031 1-435, looked up, variant C215S Q262A)
Tyrosine-protein phosphatase …: MEMEKEFEQIDKSGSWAAIYQDIRHEASDFPCRVAKLPKNKNRNRYRDVSPFDHSRIKLHQEDNDYINASLIKMEEAQRSYILTQGPLPNTCGHFWEMVWEQKSRGVVMLNRVMEKGSLKCAQYWPQKEEKEMIFEDTNLKLTLISEDIKSYYTVRQLELENLTTQETREILHFHYTTWPDFGVPESPASFLNFLFKVRESGSLSPEHGPVVVHSSAGIGRSGTFCLADTCLLLMDKRKDPSSVDIKKVLLEMRKFRMGLIATADQLRFSYLAVIEGAKFIMGDSSVQDQWKELSHEDLEPPPEHIPPPPRPPKRILEPHNGKCREFFPNHQWVKEETQEDKDCPIKEEKGSPLNAAPYGIESMSQDTEVRSRVVGGSLRGAQAASPAKGEPSLPEKDEDHALSYWKPFLVNMCVATVLTAGAYLCYRFLFNSNT
B3: PTP1B/D181A/C215S, catalytic domain (residues 1 to 321) (enzyme, human, UniProt P18031 1-321, looked up)
chain: MEMEKEFEQIDKSGSWAAIYQDIRHEASDFPCRVAKLPKNKNRNRYRDVSPFDHSRIKLHQEDNDYINASLIKMEEAQRSYILTQGPLPNTCGHFWEMVWEQKSRGVVMLNRVMEKGSLKCAQYWPQKEEKEMIFEDTNLKLTLISEDIKSYYTVRQLELENLTTQETREILHFHYTTWPAFGVPESPASFLNFLFKVRESGSLSPEHGPVVVHSSAGIGRSGTFCLADTCLLLMDKRKDPSSVDIKKVLLEMRKFRMGLIQTADQLRFSYLAVIEGAKFIMGDSSVQDQWKELSHEDLEPPPEHIPPPPRPPKRILEPHN

How the values were obtained:
[1] = molecular target: T1, PTP1B/D181A/C215E, catalytic domain …; test: ITC, 25 C, pH 7.0
Description: (§1) All isothermal titration calorimetry experiments were performed using an MCS Isothermal Titration Calorimetry System from Microcal Inc. (Northampton, Mass.). Experiments at pH 7.0 were conducted at 25° C., in 50 mM 3,3-dimethylglutarate buffer containing 1 mM DTT. The ionic strength of the buffer was adjusted to 0.15 M by addition of NaCl. Protein concentration in the calorimeter cell was 27-85 µM, while the ligand concentration in the syringe was 0.37-1 mM.
(§2) The PTP1B samples used in the isothermal titration calorimetry experiments were dialyzed completely against buffer. High-concentration stock solutions were prepared for ligands with distilled water, and adjusted to pH 7.0. […] Protein dilution during titration was determined by titration of buffer into the protein solution. […] The heat of ligand dilution was corrected by subtracting the average heat of injection after saturation.
(§3) A typical titration curve and binding isotherm for the binding of D181A/Q262A to Ac-Asp-Ala-Asp-Glu-F_2Pmp-Leu-NH_2 is shown in FIG. 3. From curve-fitting of the binding isotherms, the stoichiometry for the binding of the peptide to D181A/Q262A was determined to be 1:1.

[2] = molecular target: T2, PTP1B/D181A/Q262A, catalytic domain …; test: ITC, 25 C, pH 7.0
Description: as §1, §2, §3

[3] = system: EGFR^988-998 peptide, DADEpYLIPQQG; test: Kinetic constants for PTP1B-catalyzed hydrolysis of pTyr-containing EGFR988-998 peptide; format: biochemical; settings: EGFR988-998 peptide as substrate
Description: The catalytic domain of PTP1B (residues 1 to 321) was used for in vitro study. PTP1B mutants, C215S, D181A, and Q262A, were described previously (9, 25, 26). PTP1B double mutants, D181A/C215S and C215S/Q262A, were generated by PCR reactions, according to the standard procedure of the Quick-Change™ site-directed mutagenesis kit (Stratagene), using pT7-7/PTP1B/C215S as a template. PTP1B double mutants, D181A/C215E and D181A/Q262A, were generated by similar PCR procedures, using pT7-7/PTP1B/D181A as a template. The recombinant wild-type and mutant PTP1Bs were expressed in E. coli, and purified to homogeneity as described (25, 27). Protein concentration was determined from absorbance measurement at 280 nm, using an absorbance coefficient of 1.24 for 1 mg/ml PTP1B.
All assays were performed at 25° C. in buffer (pH 7.0, ionic strength=0.15 M) containing 50 mM 3,3-dimethylglutarate and 1 mM EDTA. A continuous spectrophotometric assay, previously described (28), was employed to determine kcat and Km for the pTyr-containing peptides. The dephosphorylation reaction was monitored by either an increase in absorbance at 282 nm, or an increase in fluorescence at 305 nm. Fluorometric and absorbance determinations were performed on a Perkin-Elmer LS50B fluorometer and a Perkin-Elmer Lambda 14 spectrophotometer, respectively. The instruments were equipped with a water-jacketed cell holder, permitting maintenance of the reaction mixture at the desired temperature (25° C.).

[4] = molecular target: T3, Ac-Asp-Ala-Asp-Glu-F2Pmp-Leu-NH2; test: Isothermal titration calorimetry, binding of PTP1B and mutants to F2Pmp peptide; settings: 25° C.; one peak absorbing heat, the other releasing heat
Description: FIG. 3 portrays calorimetric isothermal titration for the reaction of peptide Ac-Asp-Ala-Asp-Glu-F2Pmp-Leu-NH2 with PTP1B/D181A/Q262A. The upper graph depicts raw data for thirty 8-μl injections of the peptide (0.5 mM stock) into the isothermal cell containing 32 μM PTP1B/D181A/Q262A, at 4-min intervals and 25° C. Both the protein and the peptide were in 50 mM 3,3-dimethylglutarate buffer (I=0.15 M, pH 7.0) containing 1 mM DTT. The lower graph depicts an integration curve showing experimental points that were obtained by integration of the above peaks as plotted against the molar ratio of the peptide to PTP1B/D181A/Q262A within the reaction cell. The solid line corresponds to the best fit to the data according to the nonlinear, least-squares regression algorithm, ORIGIN (29).
as §1, with “Experiments at pH 7.0 were conducted at 25° C., in 50 mM 3,3-dimethylglutarate buffer containing 1 mM DTT.” left out, “μM,” for “µM,”
The PTP1B samples used in the isothermal titration calorimetry experiments were dialyzed completely against buffer. High-concentration stock solutions were prepared for ligands with distilled water, and adjusted to pH 7.0. Stock was diluted at least 26-fold with 50 mM 3,3-dimethylglutarate buffer before titration. Protein dilution during titration was determined by titration of buffer into the protein solution. […] The heat of ligand dilution was corrected by subtracting the average heat of injection after saturation.
The binding data were analyzed using ORIGIN software (29). Binding constant, K, and enthalpy change, ΔH, were used to calculate free energy change, ΔG, and entropy change, ΔS, according to equation [1]: −RTLnK=ΔG=ΔH−TΔS [1] where R is the gas constant and T is the absolute temperature.

EGF receptor = test: Substrate protection: EGF receptor tyrosine phosphorylation in COS1 cells expressing PTP1B forms (anti-pTyr Western blot); format: cell-based, Monkey; settings: COS1 cell lysates, anti-pTyr immunoblot (FIG. 4)
Description: FIG. 4 sets forth Western blots (WB) that show the level of tyrosine phosphorylation in the epidermal growth factor receptor (EGFR) upon expression of the wild-type and mutant PTP1Bs (4 μg plasmid/60 mm dish) in COS1 cells. Samples (50 μg total protein) were taken from the lysates of COS1 cells transfected with 4 μg of pJ3H plasmids expressing HA-tagged wild-type PTP1B, D181A, C215S, D181A/Q262A, or D181A/C215S. These samples were loaded into each lane for SDS-PAGE electrophoresis, and transferred onto a nitrocellulose membrane. The proteins on the membrane were first immunoblotted with anti-pTyr HRP conjugate (upper panel). The membrane was then stripped and re-probed with anti-hemagglutinin (anti-HA) HRP conjugate (lower panel).
The hemagglutinin-tagged (HA-tagged) full-length human wild-type PTP1B in pJ3H expression vector was a gift from Dr. Chemoff (30). The HA-tagged PTP1B mutants, C215S, D181A, D181A/C215S, and D181A/Q262A, were generated by PCR reactions, according to the standard procedure of the Quick-Change™ site-directed mutagenesis kit (Stratagene), using pJ3H-HA-PTP1B as a template. All mutations were verified by DNA sequencing.
Monkey kidney COS1 cells (ATCC: CRL-1650) were maintained in Dulbecco's modified Eagle's minimum essential medium (DMEM), supplemented with 10% fetal bovine serum (Life Technologies, Inc.), penicillin (50 units/ml), streptomycin (50 μg/ml), and L-glutamine (2 mM) under a humidified atmosphere containing 5% CO2. In transient transfection experiments, COS1 cells were inoculated at a density of 2×10^5 cells/60-mm dish, and grown overnight in DMEM containing 10% fetal bovine serum. Transfection was performed using LipoTAXI^R according to the manufacturer's recommendations (Stratagene, Cedar Creek, Tex.). Each transfection assay included 4 μg of purified DNA mixed with LipoTAXI^R in a 1:5 DNA:lipid ratio per 60-mm dish of cells. Following transfection, the cells were exchanged to normal culture medium, and maintained for 44 to 48 h at 37° C. and 5% CO2. The efficiency of transfection, as assessed by 5-bromo-4-chloro-3-indolyl-β-D galactoside (X-Gal) staining of pCMV-β-gal-transfected (β-Gal staining kit, Invitrogen) COS cells, was 25%.
The transfected cells (treated with or without EGF) were lysed with “lysis buffer” containing 50 mM Tris-HC1 (pH 7.5), 5 mM EDTA, 150 mM NaCl, 10 mM sodium phosphate, 10 mM sodium fluoride, 5 mM iodoacetic acid, 1 mM benzamidine, 1% Triton X-100, 10 μg/ml leupeptin, and 5 μg/ml Aprotinin. Lysate protein concentration was estimated using Bio-Rad protein assay reagent (Bio-Rad, Hercules, Calif.).
For immunoprecipitation, 1 mg of cell lysate was immunoprecipitated overnight with 30 μl of agarose-conjugated anti-hemagglutinin antibody at 4° C. Immunocomplexes were washed four times with the cell lysis buffer, and boiled for 5 min in SDS-PAGE sample buffer. Proteins in the cell lysate were separated by 8% SDS-PAGE under reducing conditions, according to the method of Laemmli (31), followed by blotting onto nitrocellulose membranes (Protran, Schleicher & Schuell). The nitrocellulose membranes were blocked with 5% non-fat dry milk in Tris-buffered saline/Tween (TBST) buffer (20 mM Tris-HC1, 150 mM NaCl, 0.1% Tween-20; pH 7.6) for 1 h at 25° C.
Thereafter, blots were incubated overnight with primary antibodies diluted in TBST containing 5% non-fat dry milk at 4° C. […]

[5] = molecular target: B1; test: ITC; complex titration curve, no Kd obtained

Molecule | Kd [1] | Kd [2] | phosphatase activity [3] | shape of ITC titration curve [4] | level of pTyr in the EGF receptor / enhancement of EGF receptor phosphorylation (EGF receptor) | binding stoichiometry [5]
B1 | 1300 nM | 6.8 nM | – | – | – | –
B2 | – | – | no measurable activities | displayed two peaks | – | –
B3 | – | – | no measurable activities | – | comparable affinity to that of C215S | 0.1
